Experimental data taken from patent publication US5879917.

Tested on: hUBF (RNA polymerase I transcription factor UBF), HeLa (Homo sapiens)
Test: footprint
Details: 14 mM MgCl2, 50 mM KCl, pH 7.9, 30 C

Row | Substance | Kd (single cis-[Pt(NH3)2]2+ d(GpG) 1,2-intrastrand adduct, central, non-cooperative) [nM] | Kd (apparent Kd (half-maximal), cooperative, Hill 2.7) [nM]
1 | G^G-100 (100 bp with single central cisplatin 1,2-d(GpG) intrastrand crosslink) | 0.06 | 
2 | human rRNA promoter -208 to +78 (EcoRI-BstEII fragment of pSBr208, 286 bp) |  | 0.018
